Measurements published in patent publication US20200270704A1 (published 2020).
Like-named read-outs stand apart in the source and are kept apart here.

Tests used:
NY-ESO-1 [1] = target: T1, NY-ESO-1 (human, UniProt P78358 1-180); test: SPR
NY-ESO-1 [2] = target: T1, NY-ESO-1; test: SPR; remark: listed apart in the source

T1 sequence (P78358 whole entry): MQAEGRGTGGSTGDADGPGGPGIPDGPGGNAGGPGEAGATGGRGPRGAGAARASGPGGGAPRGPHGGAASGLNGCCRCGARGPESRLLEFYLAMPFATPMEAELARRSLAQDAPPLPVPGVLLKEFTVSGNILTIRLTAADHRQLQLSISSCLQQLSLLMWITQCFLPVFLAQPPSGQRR

B1: BC2-3G1 (antibody, V domains shown)
VH: QVQLQQSGPGLVKPSQTLSLTCAISGDSVSSNSAAWNWIRQSPSRGLEWLGRTYYRSKWYNDYAVSVKSRITINPDTSKNQFSLQLNSVTPEDTAVYYCARDLGIAAAGDFDYWGQGTLVTVSS
VL: EIVLTQSPATLSLSPGERATLSCRASQGVSSYLAWYQQKPGQAPRLLIYDASNRATGIPARFSGSGSGTDFTLTISSLEPEDFAVYYCHQGSNWPTFGGGTKVEI
Kd (NY-ESO-1 [1]): 37 nM | Kd (NY-ESO-1 [2]): 37 nM
